Tests used:
[1] = target: TIPRLΔN, His tag removed with TEV protease (human) (UniProt O75663); assay: SEC; size exclusion profiles under different conditions (Fig. S1B), high concentration; HiLoad 26/60 Superdex 75 pg, Tris 20 mM pH 7.5, 100 mM NaCl, 10 mM β-mercaptoethanol
[2] = target: T1, TIPRLΔN, His tag removed with TEV protease (human, UniProt O75663-1 16-272); assay: crystal structure; TIPRLΔN after TEV cleavage, 70–100 mg/ml; hanging drop at 18 °C, phosphate or SPG buffer pH 5.5–6.7, 2 to 3 M NaCl; two molecules in the asymmetric unit; 2.15 Å; details: both partners purified
T1 construct: plasmid-derived residues left at the N-terminus after TEV cleavage; they form strand β1; TIPRL (TIP41, TOR signaling pathway regulator-like), human, NP_690866.1, with a 15-residue N-terminal deletion; TEV cleavage was usually incomplete; The last 16 C-terminal residues are disordered in the crystal; also called TIPRL (crystal structure); source: E. coli BL21(DE3), purified (Ni Sepharose, TEV …)
T1 sequence: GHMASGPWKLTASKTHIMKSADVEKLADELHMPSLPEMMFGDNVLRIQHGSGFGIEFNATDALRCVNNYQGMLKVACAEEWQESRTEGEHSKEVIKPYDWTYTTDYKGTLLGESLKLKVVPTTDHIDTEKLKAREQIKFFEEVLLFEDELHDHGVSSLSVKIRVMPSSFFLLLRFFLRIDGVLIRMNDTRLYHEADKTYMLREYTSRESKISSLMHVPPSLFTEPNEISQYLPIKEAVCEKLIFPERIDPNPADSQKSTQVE

“TIPRLΔN, His tag removed with TEV protease (from UniProt O75663-1 16-272) (domain or fragment)” was tested, and the stoichiometry N [1] was 2.

B1: peptide generated after cleavage with the TEV protease (MGHHHHHHENLYFQ) (peptide)
peptide: MGHHHHHHENLYFQ
notes: hexa-histidine tag and TEV cleavage site of the vector pET-TEV, as released by TEV protease; only LYFQ (site on chain A) or ENLYFQ (site on chain B) is seen in the density; also called TEV site peptide; TEV-derived peptide; source: E. coli BL21(DE3)
B1: binds [2].

Source: PMC4973239, “Crystal structure of the human Tip41 orthologue, TIPRL, reveals a novel fold and a binding site for the PP2Ac C-terminus” (Scientific Reports, 2016)
